Measurements from article PMC9958131 (Nature Communications, 2023).

B1: Q5T749 (protein)
chain: MCDQQQIQCRLPLQQCCVKGPSFCSSQSPFAQSQVVVQAPCEMQIVDCPASCPVQVCQVSDQAPCQSQTTQVKCQSKTKQVKGQAQCQSKTTQVKGQAASQSQTSSVQSQAPCQSEVSYVQCEASQPVQTCFVECAPVCYTETCYVECPVQNYVPCPAPQPVQMYRGRPAVCQPQGRFSTQCQYQGSYSSCGPQFQSRATCNNYTPQFQLRPSYSSCFPQYRSRTSFSPCVPQCQTQGSYGSFTEQHRSRSTSRCLPPPRRLQLFPRSCSPPRRFEPCSSSYLPLRPSEGFPNYCTPPRRSEPIYNSRCPRRPISSCSQRRGPKCRIEISSPCCPRQVPPQRCPVEIPPIRRRSQSCGPQPSWGASCPELRPHVEPRPLPSFCPPRRLDQCPESPLQRCPPPAPRPRLRPEPCISLEPRPRPLPRQLSEPCLYPEPLPALRPTPRPVPLPRPGQCEIPEPRPCLQPCEHPEPCPRPEPIPLPAPCPSPEPCRETWRSPSP
B2: Q9UM07 (protein)
chain: MAQGTLIRVTPEQPTHAVCVLGTLTQLDICSSAPEDCTSFSINASPGVVVDIAHGPPAKKKSTGSSTWPLDPGVEVTLTMKVASGSTGDQKVQISYYGPKTPPVKALLYLTGVEISLCADITRTGKVKPTRAVKDQRTWTWGPCGQGAILLVNCDRDNLESSAMDCEDDEVLDSEDLQDMSLMTLSTKTPKDFFTNHTLVLHVARSEMDKVRVFQATRGKLSSKCSVVLGPKWPSHYLMVPGGKHNMDFYVEALAFPDTDFPGLITLTISLLDTSNLELPEAVVFQDSVVFRVAPWIMTPNTQPPQEVYACSIFENEDFLKSVTTLAMKAKCKLTICPEEENMDDQWMQDEMEIGYIQAPHKTLPVVFDSPRNRGLKEFPIKRVMGPDFGYVTRGPQTGGISGLDSFGNLEVSPPVTVRGKEYPLGRILFGDSCYPSNDSRQMHQALQDFLSAQQVQAPVKLYSDWLSVGHVDEFLSFVPAPDRKGFRLLLASPRSCYKL
B3: P04003 (protein, UniProt P04003 1-597, looked up)
chain: MHPPKTPSGALHRKRKMAAWPFSRLWKVSDPILFQMTLIAALLPAVLGNCGPPPTLSFAAPMDITLTETRFKTGTTLKYTCLPGYVRSHSTQTLTCNSDGEWVYNTFCIYKRCRHPGELRNGQVEIKTDLSFGSQIEFSCSEGFFLIGSTTSRCEVQDRGVGWSHPLPQCEIVKCKPPPDIRNGRHSGEENFYAYGFSVTYSCDPRFSLLGHASISCTVENETIGVWRPSPPTCEKITCRKPDVSHGEMVSGFGPIYNYKDTIVFKCQKGFVLRGSSVIHCDADSKWNPSPPACEPNSCINLPDIPHASWETYPRPTKEDVYVVGTVLRYRCHPGYKPTTDEPTTVICQKNLRWTPYQGCEALCCPEPKLNNGEITQHRKSRPANHCVYFYGDEISFSCHETSRFSAICQGDGTWSPRTPSCGDICNFPPKIAHGHYKQSSSYSFFKEEIIYECDKGYILVGQAKLSCSYSHWSAPAPQCKALCRKPELVNGRLSVDKDQYVEPENVTIQCDSGYGVVGPQSITCSGNRTWYPEVPKCEWETPEGCEQVLTGKRLMQCLPNPEDVKMALEVYKLSLEIEQLELQRDSARQSTLDKEL
modifications: full-length
B4: Q9NSB2 (protein)
chain: MSCRSYRVSSGHRVGNFSSCSAMTPQNLNRFRANSVSCWSGPGFRGLGSFGSRSVITFGSYSPRIAAVGSRPIHCGVRFGAGCGMGFGDGRGVGLGPRADSCVGLGFGAGSGIGYGFGGPGFGYRVGGVGVPAAPSITAVTVNKSLLTPLNLEIDPNAQRVKKDEKEQIKTLNNKFASFIDKVRFLEQQNKLLETKWSFLQEQKCIRSNLEPLFESYITNLRRQLEVLVSDQARLQAERNHLQDVLEGFKKKYEEEVVCRANAENEFVALKKDVDAAFMNKSDLEANVDTLTQEIDFLKTLYMEEIQLLQSHISETSVIVKMDNSRDLNLDGIIAEVKAQYEEVARRSRADAEAWYQTKYEEMQVTAGQHCDNLRNIRNEINELTRLIQRLKAEIEHAKAQRAKLEAAVAEAEQQGEATLSDAKCKLADLECALQQAKQDMARQLCEYQELMNAKLGLDIEIATYRRLLEGEESRLCEGVGPVNISVSSSRGGLVCGPEP
B5: A0A0G2JMB2 (protein)
chain: ASPTSPKVFPLSLDSTPQDGNVVVACLVQGFFPQEPLSVTWSESGQNVTARNFPPSQDASGDLYTTSSQLTLPATQCPDGKSVTCHVKHYTNPSQDVTVPCPVPPPPPCCHPRLSLHRPALEDLLLGSEANLTCTLTGLRDASGATFTWTPSSGKSAVQGPPERDLCGCYSVSSVLPGCAQPWNHGETFTCTAAHPELKTPLTANITKSGNTFRPEVHLLPPPSEELALNELVTLTCLARGFSPKDVLVRWLQGSQELPREKYLTWASRQEPSQGTTTFAVTSILRVAAEDWKKGDTFSCMVGHEALPLAFTQKTIDRLAGKPTHVNVSVVMAEVDGTCY
B6: C9JEU5 (protein)
chain: MSWSLHPRNLILYFYALLFLSSTCVAYVATRDNCCILDERFGSYCPTTCGIADFLSTYQTKVDKDLQSLEDILHQVENKTSEVKQLIKAIQLTYNPDESSKPNMIDAATLKSRKMLEEIMKYEASILTHDSSIRYLQEIYNSNNQKIVNLKEKVAQLEAQCQEPCKDTVQIHDITGKVKVDSPSLDCQDIANKGAKQSGLYFIKPLKANQQFLVYCEIDGSGNGWTVFQKRLDGSVDFKKNWIQYKEGFGHLSPTGTTEFWLGNEKIHLISTQSAIPYALRVELEDWNGRTSTADYAMFKVGPEADKYRLTYAYFAGGDAGDAFDGFDFGDDPSDKFFTSHNGMQFSTWDNDNDKFEGNCAEQDGSGWWMNKCHAGHLNGVYYQGGTYSKASTPNGYDNGIIWATWKTRWYSMKKTTMKIIPFNRLTIGEGQQHHLGGAKQAGDV
B7: P03971 (protein, UniProt P03971 1-560, looked up)
chain: MRDLPLTSLALVLSALGALLGTEALRAEEPAVGTSGLIFREDLDWPPGSPQEPLCLVALGGDSNGSSSPLRVVGALSAYEQAFLGAVQRARWGPRDLATFGVCNTGDRQAALPSLRRLGAWLRDPGGQRLVVLHLEEVTWEPTPSLRFQEPPPGGAGPPELALLVLYPGPGPEVTVTRAGLPGAQSLCPSRDTRYLVLAVDRPAGAWRGSGLALTLQPRGEDSRLSTARLQALLFGDDHRCFTRMTPALLLLPRSEPAPLPAHGQLDTVPFPPPRPSAELEESPPSADPFLETLTRLVRALRVPPARASAPRLALDPDALAGFPQGLVNLSDPAALERLLDGEEPLLLLLRPTAATTGDPAPLHDPTSAPWATALARRVAAELQAAAAELRSLPGLPPATAPLLARLLALCPGGPGGLGDPLRALLLLKALQGLRVEWRGRDPRGPGRAQRSAGATAADGPCALRELSVDLRAERSVLIPETYQANNCQGVCGWPQSDRNPRYGNHVVLLLKMQVRGAALARPPCCVPTAYAGKLLISLSEERISAHHVPNMVATECGCR
modifications: full-length
B8: Q12805 (protein, UniProt Q12805 1-493, looked up)
chain: MLKALFLTMLTLALVKSQDTEETITYTQCTDGYEWDPVRQQCKDIDECDIVPDACKGGMKCVNHYGGYLCLPKTAQIIVNNEQPQQETQPAEGTSGATTGVVAASSMATSGVLPGGGFVASAAAVAGPEMQTGRNNFVIRRNPADPQRIPSNPSHRIQCAAGYEQSEHNVCQDIDECTAGTHNCRADQVCINLRGSFACQCPPGYQKRGEQCVDIDECTIPPYCHQRCVNTPGSFYCQCSPGFQLAANNYTCVDINECDASNQCAQQCYNILGSFICQCNQGYELSSDRLNCEDIDECRTSSYLCQYQCVNEPGKFSCMCPQGYQVVRSRTCQDINECETTNECREDEMCWNYHGGFRCYPRNPCQDPYILTPENRCVCPVSNAMCRELPQSIVYKYMSIRSDRSVPSDIFQIQATTIYANTINTFRIKSGNENGEFYLRQTSPVSAMLVLVKSLSGPREHIVDLEMLTVSSIGTFRTSSVLRLTIIVGPFSF
modifications: full-length
B9: P0DPH8 (protein, UniProt P0DPH8 1-450, looked up)
chain: MRECISIHVGQAGVQIGNACWELYCLEHGIQPDGQMPSDKTIGGGDDSFNTFFSETGAGKHVPRAVFVDLEPTVVDEVRTGTYRQLFHPEQLITGKEDAANNYARGHYTIGKEIVDLVLDRIRKLADLCTGLQGFLIFHSFGGGTGSGFASLLMERLSVDYGKKSKLEFAIYPAPQVSTAVVEPYNSILTTHTTLEHSDCAFMVDNEAIYDICRRNLDIERPTYTNLNRLIGQIVSSITASLRFDGALNVDLTEFQTNLVPYPRIHFPLATYAPVISAEKAYHEQLSVAEITNACFEPANQMVKCDPRHGKYMACCMLYRGDVVPKDVNAAIATIKTKRTIQFVDWCPTGFKVGINYQPPTVVPGGDLAKVQRAVCMLSNTTAIAEAWARLDHKFDLMYAKRAFVHWYVGEGMEEGEFSEAREDLAALEKDYEEVGVDSVEAEAEEGEEY
modifications: full-length
B10: Q16610 (protein)
chain: MGTTARAALVLTYLAVASAASEGGFTATGQRQLRPEHFQEVGYAAPPSPPLSRSLPMDHPDSSQHGPPFEGQSQVQPPPSQEATPLQQEKLLPAQLPAEKEVGPPLPQEAVPLQKELPSLQHPNEQKEGTPAPFGDQSHPEPESWNAAQHCQQDRSQGGWGHRLDGFPPGRPSPDNLNQICLPNRQHVVYGPWNLPQSSYSHLTRQGETLNFLEIGYSRCCHCRSHTNRLECAKLVWEEAMSRFCEAEFSVKTRPHWCCTRQGEARFSCFQEEAPQPHYQLRACPSHQPDISSGLELPFPPGVPTLDNIKNICHLRRFRSVPRNLPATDPLQRELLALIQLEREFQRCCRQGNNHTCTWKAWEDTLDKYCDREYAVKTHHHLCCRHPPSPTRDECFARRAPYPNYDRDILTIDIGRVTPNLMGHLCGNQRVLTKHKHIPGLIHNMTARCCDLPFPEQACCAEEEKLTFINDLCGPRRNIWRDPALCCYLSPGDEQVNCFN

The molecules below were run on PAD2 and PAD4 (assay: Citrullination site mapping of fibrinogen and vimentin by trypsin digestion and mass spectrometry (protein-level sheet, one search over native, PAD2-cit and PAD4-cit samples)). Settings: modified residues found per protein; Deamidated [R..] = deamidated (citrullinated) arginine positions; trypsin digest, Sequest HT; not split by sample (native, PAD2-citrullinated, PAD4-citrullinated fibrinogen and vimentin).
Type: biochemical, human
Description: Description: Raw mass spectrometry data for proteolytic mapping of fibrinogen, vimentin, and hnRNP A2/B1 by cathepsins B, S, and H (sheets 1-6); citrullination site mapping of fibrinogen and vimentin by trypsin digestion (sheets 7-8); and the natural antigen processing assay with native, PAD2-citrullinated (PAD2-cit), and PAD4-citrullinated (PAD4-cit) fibrinogen (sheets 9-11).

Row | Molecule | Modifications
1 | B1 | Deamidated [R211; R248; R371; R554]
2 | B2 | Deamidated [R123; R137; R156; R205; R212; R218; R372; R374; R383; R394; R419; R427; R441; R484; R488; R495; R536; R544; R550; R555; R609; R639; R650]
3 | B3 | Deamidated [R159; R329; R331; R485; R493]
4 | B4 | Deamidated [R184]
5 | B5 | Deamidated [R240; R250; R260]
6 | B6 | Deamidated [R113; R134; R281; R290; R309; R409; R425]
7 | B7 | Deamidated [R499; R516; R522; R560]
8 | B8 | Deamidated [R185; R208; R227; R328; R345]
9 | B9 | Deamidated [R64; R84; R105; R339; R373; R422]
10 | B10 | Deamidated [R171; R343]
